Results taken from PMC314469, “Protein Interaction Networks by Proteome Peptide Scanning” (PLoS Biology, 2004).

T1: amphyphisin SH3 (AMPH_HUMAN), P49418
T1 chain: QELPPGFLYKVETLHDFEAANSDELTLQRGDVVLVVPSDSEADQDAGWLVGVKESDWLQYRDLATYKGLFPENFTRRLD


What was measured:
[1] = molecular target: T1, amphyphisin SH3 (AMPH_HUMAN), P49418; assay: SPOT array
[2] = molecular target: endophilin SH3 (SH3G2_HUMAN), Q99962; assay: SPOT array

Binder | normalised SPOT signal, Boehringer light units (BLU); mean over the file's lines of this peptide [1] | normalised SPOT signal, Boehringer light units (BLU); mean over the file's lines of this peptide [2]
KITPPRRPHRSSSG [Q9NWB4 151-164] | 6680 | 2730
KKPDIPRPIKINLL [Q9UHI5 412-425] | 159 | 307
KPQPPARPPPPVLP [Q9UKL5 750-764] | 1520 | 10900
KNLDISRPDKKSKK [P46977 431-444] | 327 | 342
ANLQPKRPKTIKQR [Q9NXX2 8-21] | 23.6 | 55.4
KIVDPKRPLMPEES [Q9BXK3 581-594] | 26.8 | 34
KKPVPARPPPPTNF [AAH28697 228-242] | 150 | 11900
KRGRPGRPPSTNKK [O00539 35-49] | 60.3 | 2490
ANPPPKRPVRASSR [Q9HCK1 771-784] | 14200 | 8740
KPQTIKRPLNPLAS [Q9UKV6 127-140] | 9 | 52.2
KPASPKKPPPGERS [O60382 1692-1706] | 56 | 737
KKPPLRRPHSVIGG [Q00537 66-79] | 15.8 | 81
KRIKLRRPRVSKQR [Q96FU1 26-39] | 12.4 | 20.7
KPGSPYRPPVPRAP [Q14687 646-660] | 201 | 1840
KPVSPRRPWSPSKE [Q9HCL7 1184-1197] | 226 | 1760
KLMEPHRPERQDEK [P49593 287-300] | 485 | 146
KNRTFLRPPKVKME [O75937 248-261] | 77.8 | 55.9
KLMKFSRPKKTRSG [Q9UIG2 1550-1563] | 0 | 1.7
KPPKPPRPPKTLKL [Q9Y6N4 509-523] | 1290 | 25300
KLDTPLRPARQQPT [Q14775 472-485] | 2170 | 1390
KPSRPPRPSRPPPP [O43584 85-98] | 8020 | 46000
